B1: C-type mannose receptor 2 (Homo sapiens), Q9UBG0 (parent)
chain: MGPGRPAPAPWPRHLLRCVLLLGCLHLGRPGAPGDAALPEPNVFLIFSHGLQGCLEAQGGQVRVTPACNTSLPAQRWKWVSRNRLFNLGTMQCLGTGWPGTNTTASLGMYECDREALNLRWHCRTLGDQLSLLLGARTSNISKPGTLERGDQTRSGQWRIYGSEEDLCALPYHEVYTIQGNSHGKPCTIPFKYDNQWFHGCTSTGREDGHLWCATTQDYGKDERWGFCPIKSNDCETFWDKDQLTDSCYQFNFQSTLSWREAWASCEQQGADLLSITEIHEQTYINGLLTGYSSTLWIGLNDLDTSGGWQWSDNSPLKYLNWESDQPDNPSEENCGVIRTESSGGWQNRDCSIALPYVCKKKPNATAEPTPPDRWANVKVECEPSWQPFQGHCYRLQAEKRSWQESKKACLRGGGDLVSIHSMAELEFITKQIKQEVEELWIGLNDLKLQMNFEWSDGSLVSFTHWHPFEPNNFRDSLEDCVTIWGPEGRWNDSPCNQSLPSICKKAGQLSQGAAEEDHGCRKGWTWHSPSCYWLGEDQVTYSEARRLCTDHGSQLVTITNRFEQAFVSSLIYNWEGEYFWTALQDLNSTGSFFWLSGDEVMYTHWNRDQPGYSRGGCVALATGSAMGLWEVKNCTSFRARYICRQSLGTPVTPELPGPDPTPSLTGSCPQGWASDTKLRYCYKVFSSERLQDKKSWVQAQGACQELGAQLLSLASYEEEHFVANMLNKIFGESEPEIHEQHWFWIGLNRRDPRGGQSWRWSDGVGFSYHNFDRSRHDDDDIRGCAVLDLASLQWVAMQCDTQLDWICKIPRGTDVREPDDSPQGRREWLRFQEAEYKFFEHHSTWAQAQRICTWFQAELTSVHSQAELDFLSHNLQKFSRAQEQHWWIGLHTSESDGRFRWTDGSIINFISWAPGKPRPVGKDKKCVYMTASREDWGDQRCLTALPYICKRSNVTKETQPPDLPTTALGGCPSDWIQFLNKCFQVQGQEPQSRVKWSEAQFSCEQQEAQLVTITNPLEQAFITASLPNVTFDLWIGLHASQRDFQWVEQEPLMYANWAPGEPSGPSPAPSGNKPTSCAVVLHSPSAHFTGRWDDRSCTEETHGFICQKGTDPSLSPSPAALPPAPGTELSYLNGTFRLLQKPLRWHDALLLCESRNASLAYVPDPYTQAFLTQAARGLRTPLWIGLAGEEGSRRYSWVSEEPLNYVGWQDGEPQQPGGCTYVDVDGAWRTTSCDTKLQGAVCGVSSGPPPPRRISYHGSCPQGLADSAWIPFREHCYSFHMELLLGHKEARQRCQRAGGAVLSILDEMENVFVWEHLQSYEGQSRGAWLGMNFNPKGGTLVWQDNTAVNYSNWGPPGLGPSMLSHNSCYWIQSNSGLWRPGACTNITMGVVCKLPRAEQSSFSPSALPENPAALVVVLMAVLLLLALLTAALILYRRRQSIERGAFEGARYSRSSSSPTEATEKNILVSDMEMNEQQE

Variants of: B1
Conditions: with co1a1_rat Col1a1, P02454
Chain of co1a1_rat Col1a1, P02454 (P02454 whole entry): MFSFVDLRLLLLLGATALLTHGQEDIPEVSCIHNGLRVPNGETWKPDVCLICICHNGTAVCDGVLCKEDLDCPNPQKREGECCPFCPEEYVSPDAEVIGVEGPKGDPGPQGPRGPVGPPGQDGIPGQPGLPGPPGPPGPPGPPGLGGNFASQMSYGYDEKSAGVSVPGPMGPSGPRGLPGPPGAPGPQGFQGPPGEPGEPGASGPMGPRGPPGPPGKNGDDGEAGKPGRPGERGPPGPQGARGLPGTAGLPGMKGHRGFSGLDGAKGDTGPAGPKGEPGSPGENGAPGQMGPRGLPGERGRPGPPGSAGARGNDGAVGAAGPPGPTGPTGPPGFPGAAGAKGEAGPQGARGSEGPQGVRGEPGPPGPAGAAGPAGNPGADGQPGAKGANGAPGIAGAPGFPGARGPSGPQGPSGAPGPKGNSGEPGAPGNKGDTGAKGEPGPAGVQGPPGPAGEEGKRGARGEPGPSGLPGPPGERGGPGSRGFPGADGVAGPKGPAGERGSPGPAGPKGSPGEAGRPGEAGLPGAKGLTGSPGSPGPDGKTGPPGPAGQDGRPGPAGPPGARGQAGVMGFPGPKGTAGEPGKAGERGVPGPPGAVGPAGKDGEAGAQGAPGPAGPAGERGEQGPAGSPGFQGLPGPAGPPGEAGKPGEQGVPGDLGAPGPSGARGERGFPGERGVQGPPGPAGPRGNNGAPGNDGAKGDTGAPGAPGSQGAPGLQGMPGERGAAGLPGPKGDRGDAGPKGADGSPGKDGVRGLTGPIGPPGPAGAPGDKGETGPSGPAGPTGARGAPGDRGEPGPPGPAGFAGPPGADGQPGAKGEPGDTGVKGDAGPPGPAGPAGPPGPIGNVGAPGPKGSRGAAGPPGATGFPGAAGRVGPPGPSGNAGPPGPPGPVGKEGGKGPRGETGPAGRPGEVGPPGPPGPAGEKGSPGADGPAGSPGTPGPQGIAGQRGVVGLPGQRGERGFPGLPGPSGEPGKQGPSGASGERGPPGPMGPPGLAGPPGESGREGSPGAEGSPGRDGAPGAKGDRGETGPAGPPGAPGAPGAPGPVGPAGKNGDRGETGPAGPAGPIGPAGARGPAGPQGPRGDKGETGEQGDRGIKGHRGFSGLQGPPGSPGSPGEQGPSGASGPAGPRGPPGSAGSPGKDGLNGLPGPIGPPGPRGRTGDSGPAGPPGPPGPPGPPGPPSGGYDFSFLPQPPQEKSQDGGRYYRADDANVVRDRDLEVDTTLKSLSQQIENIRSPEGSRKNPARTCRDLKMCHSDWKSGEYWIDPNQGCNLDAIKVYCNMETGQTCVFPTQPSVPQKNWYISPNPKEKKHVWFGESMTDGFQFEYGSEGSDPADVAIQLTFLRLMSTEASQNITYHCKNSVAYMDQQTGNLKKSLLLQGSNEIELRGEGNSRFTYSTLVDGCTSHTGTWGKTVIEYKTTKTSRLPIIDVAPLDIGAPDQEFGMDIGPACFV

effect of a mutation on the interaction | Variant
disrupting interaction strength | Y193A
disrupting interaction strength | Y219A
decreasing interaction strength | Y292N;S294T
disrupting interaction strength | R206A;D208A
disrupting interaction strength | Q179N;N181T

From IntAct's records for PubMed 26481812
